We go through 9 molecules from US20250026839A1 (OSE IMMUNOTHERAPEUTICS, published 2025).

The target of experiment [1] is Recombinant human TRIM21 protein, TRIM21-his (Sinobiological #18010-H07B) (human) (UniProt P19474). The experiment can be described thus: competition ELISA, TRIM21-his coated, antibody in excess (20 µg/ml), competitor biotinylated Fc-CLEC1 in dose response. (ELISA stands for enzyme-linked immunosorbent assay.)
For experiment [2] the target is unchanged. The experiment can be described thus: antagonist assay of FIG. 6A against a control antibody; format not stated; competitor CLEC-1.
The target of experiment [3] is T1, Recombinant human TRIM21 protein, TRIM21-his (Sinobiological #18010-H07B) (human, UniProt P19474 1-475).
T1 construct: Bought, produced in baculovirus; coated on ELISA plates or immobilised on a CM5 chip; not shown: his tag
T1 sequence (P19474 whole entry): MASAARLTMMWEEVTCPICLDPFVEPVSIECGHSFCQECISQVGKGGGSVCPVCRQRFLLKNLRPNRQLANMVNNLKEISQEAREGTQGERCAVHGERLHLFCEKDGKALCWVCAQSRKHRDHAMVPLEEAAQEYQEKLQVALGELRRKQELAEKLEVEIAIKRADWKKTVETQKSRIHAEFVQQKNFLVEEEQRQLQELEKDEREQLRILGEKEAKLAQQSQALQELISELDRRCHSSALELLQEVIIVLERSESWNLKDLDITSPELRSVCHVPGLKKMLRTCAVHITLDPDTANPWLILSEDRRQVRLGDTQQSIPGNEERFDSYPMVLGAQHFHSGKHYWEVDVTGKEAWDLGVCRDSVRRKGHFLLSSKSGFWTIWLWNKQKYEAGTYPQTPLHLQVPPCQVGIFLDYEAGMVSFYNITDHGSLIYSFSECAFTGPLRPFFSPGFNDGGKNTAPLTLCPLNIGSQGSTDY
In words: ELISA, TRIM21-his coated, biotinylated His-CLEC1 in dose response, streptavidin-peroxidase.

For experiment [4], the target named is T1, Recombinant human TRIM21 protein, …. In words: ELISA, TRIM21-his coated, biotinylated Fc-CLEC1 in dose response, streptavidin-peroxidase. From the text: (§1) Plate was saturated with superblock buffer (#37515, Thermofisher).
Experiment [5] has the same target. In words: ELISA, TRIM21-his coated, biotinylated Fc in dose response (FIG. 4A).
Description: as §1

Experiment [6] concerns the target T2, endogenous TRIM21 from whole cell extracts (RAJI, MoDC, HPB-ALL cells) (human, UniProt P19474 1-475).
T2 construct: Endogenous cellular protein of human cell lines and monocyte derived dendritic cells, not a recombinant construct; also called TRIM21 E3 Ubiquitin-protein Ligase; cellular endogenous TRIM-21
In words: co-immunoprecipitation from RAJI whole cell extract, anti-TRIM21 Western blot (FIG. 3A); supernatant not depleted of TRIM21 (FIG. 3B). From the text:
FIG. 3: Co-immunoprecipitation of TRIM21 with CLEC-1A.
The experiment was repeated using Monocyte derived Dendritic Cells (MoDC) protein extracts as starting endogenous protein mix.

Sequence of Recombinant human TRIM21 protein, TRIM21-his (Sinobiological #18010-H07B) (human) (P19474 whole entry): as above
T2 sequence (P19474 whole entry): as above

For “anti-TRIM21 antibody sc-25351 (Santacruz)”, the percent decrease of the Fc-CLEC1/TRIM21 interaction in experiment [1] is 50%.
The same measure, in the same setting: with “anti-TRIM21 antibody MAB62191 (Biotechne)” the figure was 50%; with “anti-TRIM21 antibody MAB6219 (Biotechne)”, 50%.
For anti-TRIM21 antibody Fisher PA5-22295, the percent reduction of the binding between CLEC-1 and TRIM21 in experiment [2] came out at 65%.
On to anti-TRIM21 antibody PA5-18147 (Fisher), for which the percent decrease of the Fc-CLEC1/TRIM21 interaction in experiment [1] was determined as 50%.
Regarding “anti-TRIM21 antibody PA5-22294 (Fisher / Invitrogen)”, the percent decrease of the Fc-CLEC1/TRIM21 interaction in experiment [1] came to 50%.

B1: His-CLEC1 (Biotechne #1704-CL) (receptor)
chain: QYYQLSNTGQDTISQMEERLGNTSQELQSLQVQNIKLAGSLQHVAEKLCRELYNKAGAHRCSPCTEQWKWHGDNCYQFYKDSKSWEDCKYFCLSENSTMLKINKQEDLEFAASQSYSEFFYSYWTGLLRPDSGKAWLWMDGTPFTSELFHIIIDVTSPRSRDCVAILNGMIFSKDCKELKRCVCERRAGMVKPESLHVPPETLGEGD
modifications: biotinylated in the ELISA experiments (sites not given)
notes: Bought recombinant protein produced in NS0 cells; also called His-CLEC1A; His-CLEC-1A; not shown: His tag
Broadly, the EC50 is the concentration that produces a half-maximal response. For the molecule B1, the EC50 in experiment [3] was determined as 13 mg/L.

B2: Soluble Clec1-human IgG Fc chimera (Fc-Clec-1) (Fc fusion)
chain: DKTHTCPPCPAPPVAGGPSVFLFPPKPKDTLMISRTPEVTCVVVDVSHEDPEVKFNWYVDGVEVHNAKTKPREEQYNSTYRVVSVLTVLHQDWLNGKEYKCKVSNKGLPSSIEKTISKAKGQPREPQVYTLPPSRDELTKNQVSLTCLVKGFYPSDIAVEWESNGQPENNYKTTPPVLDSDGSFFLYSKLTVDKSRWQQGNVFSCSVMHEALHNHYTQKSLSLSPGKQYYQLSNTGQDTISQMEERLGNTSQELQSLQVQNIKLAGSLQHVAEKLCRELYNKAGAHRCSPCTEQWKWHGDNCYQFYKDSKSWEDCKYFCLSENSTMLKINKQEDLEFAASQSYSEFFYSYWTGLLRPDSGKAWLWMDGTPFTSELFHIIIDVTSPRSRDCVAILNGMIFSKDCKELKRCVCERRAGMVKPESLHVPPETLGEGD
modifications: biotinylated in the ELISA experiments (sites not given)
notes: domain: Fc; also called Fc-CLEC-1A; Fc-CLEC1A
B2: in experiment [4], the EC50 is 15 mg/L.

B3: Fc only (human IgG1-E3 Fc control) (other, UniProt P01857-1 104-330, looked up)
chain: DKTHTCPPCPAPPVAGGPSVFLFPPKPKDTLMISRTPEVTCVVVDVSHEDPEVKFNWYVDGVEVHNAKTKPREEQYNSTYRVVSVLTVLHQDWLNGKEYKCKVSNKGLPSSIEKTISKAKGQPREPQVYTLPPSRDELTKNQVSLTCLVKGFYPSDIAVEWESNGQPENNYKTTPPVLDSDGSFFLYSKLTVDKSRWQQGNVFSCSVMHEALHNHYTQKSLSLSPGK
modifications: biotinylated in the ELISA (sites not given)
notes: domain: Fc; also called Fc alone; Fc-biot control
Consider B3, for which the binding result in experiment [5] is given as “no binding (tested: 30 µg/ml)”; in experiment [6] it was “no binding”.
